Like-named read-outs stand apart in the source and are kept apart here.
Experiments:
[1] = target: P3Z chimeric PD-1 receptor on HuT78/P3Z cells (human); assay: cell-based or functional assay
PD-1-EC/Fc = target: T1, PD-1-EC/Fc (human); assay: SPR (BIAcore T-200), mAb captured on anti-mouse Fc chip, PD-1/Fc injected
T1 construct: also called PD-1/Fc
Description: Anti-mouse Fc CM5 biosensor chip (GE Healthcare) was generated using a standard primary amine coupling protocol. PD-1 mAbs at 0.3 µg/ml were captured on anti-mouse Fc surface for 1 min at 10 µl/min. […] Association rates (Kₐ or kₒₙ) and dissociation rates (Kd or koff) were calculated using the one-to-one Langmuir binding model (BIA Evaluation Software, GE Life Sciences). The equilibrium dissociation constant (KD) was calculated as the ratio koff/kₒₙ.

[2] = target: T2, human PD-1 expressed on cells (HuT78/PD-1, NK92MI/PD-1) (human, UniProt Q15116 25-288); assay: cell-based or functional assay
[3] = target: T2, human PD-1 expressed on cells …; assay: FACS on PD-1-expressing cells
[4] = target: T2, human PD-1 expressed on cells …; assay: cell-based or functional assay; remark: listed apart in the source

T2 sequence (Q15116 25-288): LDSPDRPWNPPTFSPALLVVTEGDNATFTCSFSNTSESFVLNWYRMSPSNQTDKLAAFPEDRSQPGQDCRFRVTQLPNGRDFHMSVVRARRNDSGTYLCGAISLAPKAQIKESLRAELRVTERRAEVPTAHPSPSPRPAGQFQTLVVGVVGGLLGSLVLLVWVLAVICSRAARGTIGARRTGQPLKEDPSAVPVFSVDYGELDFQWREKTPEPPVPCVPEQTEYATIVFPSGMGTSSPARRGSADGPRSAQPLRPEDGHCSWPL
T1 sequence (Q15116 21-168): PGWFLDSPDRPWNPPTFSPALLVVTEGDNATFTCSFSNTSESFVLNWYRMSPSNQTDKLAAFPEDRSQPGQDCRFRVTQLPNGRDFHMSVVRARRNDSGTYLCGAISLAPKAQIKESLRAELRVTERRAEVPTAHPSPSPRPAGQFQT
P3Z chimeric PD-1 receptor on HuT78/P3Z cells (human), sequence (chain, as listed by the source mutant limits assumed): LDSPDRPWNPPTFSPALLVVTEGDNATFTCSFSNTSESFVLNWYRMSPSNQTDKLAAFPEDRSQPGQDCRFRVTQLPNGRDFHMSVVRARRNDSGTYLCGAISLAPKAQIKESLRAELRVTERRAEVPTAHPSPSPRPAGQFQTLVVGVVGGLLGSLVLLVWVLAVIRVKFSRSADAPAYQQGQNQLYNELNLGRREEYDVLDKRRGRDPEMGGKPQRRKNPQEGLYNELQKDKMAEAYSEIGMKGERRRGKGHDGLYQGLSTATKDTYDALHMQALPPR

Binder	Inhibition of IL-2 secretion, HuT78/P3Z + HEK293/PD-L1: IC50 [1]	Assay-1, IL-2 release HuT78/PD-1 + HEK293/OS8/PD-L1: Baseline [2]	Assay-1, IL-2 release HuT78/PD-1 + HEK293/OS8/PD-L1: Baseline [4]	other results
murine mAb 326 (antibody, V domains shown, Murine hybridoma IgG; also called mu326) VH: QIQLVQSGPELKKPGETVKISCKASGYTFTNYGMNWVKQAPGKGLKWMGWINNNNGEPTYAEEFKGRFAFSLETSASTAYLQINNLKNEDTATYFCARDVMDYWGQGTSVTVSS VL: DIVLTQSPASLAVSLGQRATISCRASESVDNYGYSFMHWYQQKPGQPPQLLIYRASNLESGIPARFSGSGSRTGFTLTINPVEADDVATYYCQQSKEYPTFGGGTKLEVK	0.039 µg/mL	242 pg/mL	–	Kd (PD-1-EC/Fc): 324 pM; koff (PD-1-EC/Fc): 7.79e-05 s⁻¹; kon (PD-1-EC/Fc): 240000 M⁻¹ s⁻¹
ch326 (chimeric antibody from mu326, human IgG2/kappa) (antibody, V domains shown, domain: human Ig kappa C-region; not shown: human IgG2 constant region) VH: QIQLVQSGPELKKPGETVKISCKASGYTFTNYGMNWVKQAPGKGLKWMGWINNNNGEPTYAEEFKGRFAFSLETSASTAYLQINNLKNEDTATYFCARDVMDYWGQGTSVTVSS VL: DIVLTQSPASLAVSLGQRATISCRASESVDNYGYSFMHWYQQKPGQPPQLLIYRASNLESGIPARFSGSGSRTGFTLTINPVEADDVATYYCQQSKEYPTFGGGTKLEVKR	–	250 pg/mL	–	EC50 [3]: 0.72 µg/mL
hu317-1 (humanized, human IgG2/kappa) (antibody, V domains shown, not shown: a dimerising Fc or GST) VH: QVQLQESGPGLVKPSETLSLTCTVSGFSLTSYGVHWIRQPPGKGLEWLGVIWAGGSTNYNPSLKSRLTISKDNSKSQVSLKMSSVTAADTAVYYCARAYGNYWYIDVWGQGTTVTVSS VL: DIVMTQSPDSLAVSLGERATINCKASQSVSNDVAWYQQKPGQPPKLLINYAFHRFTGVPDRFSGSGYGTDFTLTISSLQAEDVAVYYCHQAYSSPYTFGGGTKLEIKR	–	–	91 pg/mL	–
murine mAb 317 (antibody, V domains shown) VH: QVQLKESGPGLVAPSKNLSITCTVSGFSLTSYGVHWIRQPPGKGLEWLGVIWAGGSTNYNSALMSRLSISKDNSRSQVFLRMNSLQTDDTAMYYCARAYGNYWYIDVWGAGTTVTVSS VL: DIVMTQTPKFLLVSAGDRVTITCKASQSVSNDVAWYQQKPGQSPKLLINYAFHRFTGVPDRFTGSGYGTDFIFTISTVQAEDLAVYFCHQAYSSPYTFGGGTKLEMK	0.083 µg/mL	–	98 pg/mL	–
ch317 (chimeric antibody from mu317, human IgG2/kappa) (antibody, V domains shown, not shown: a dimerising Fc or GST) VH: QVQLKESGPGLVAPSKNLSITCTVSGFSLTSYGVHWIRQPPGKGLEWLGVIWAGGSTNYNSALMSRLSISKDNSRSQVFLRMNSLQTDDTAMYYCARAYGNYWYIDVWGAGTTVTVSS VL: DIVMTQTPKFLLVSAGDRVTITCKASQSVSNDVAWYQQKPGQSPKLLINYAFHRFTGVPDRFTGSGYGTDFIFTISTVQAEDLAVYFCHQAYSSPYTFGGGTKLEMKR	–	–	82 pg/mL	–
hu326-1 (humanized, human IgG2/kappa) (antibody, V domains shown, not shown: a dimerising Fc or GST) VH: QVQLVQSGSELKKPGASVKVSCKASGYTFTNYGMNWVRQAPGQGLEWMGWINNNNGEPTYAQGFRGRFVFSLDTSASTAYLQISSLKTEDTAVYFCARDVMDYWGQGTTVTVSS VL: DIVLTQSPASLAVSPGQRATITCRASESVDNYGYSFMHWYQQKPGQPPKLLIYRASNLESGVPARFSGSGSRTDFTLTINPVEANDTANYYCQQSKEYPTFGGGTKVEIKR	–	283 pg/mL	–	–

— patent US20230303689A1 (published 2023)
